Results from the NTF2 design screens of Basanta et al. (2020).

Assay: protease stability score; higher = more stable; yeast display proteolysis, trypsin and chymotrypsin;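 note: relative to predicted unfolded state with 0 unfolded-like and 1 meaning tenfold more protease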

Sequence | protease stability score
DEEKKDIKHWLEKWITDTRTGDEEEILKMLDPNVRTEQGEFELHGRDALKHYIDRFDHIHEVDLEVKHVTEQGDKLHIKGTLRMDGIVDGVRRTFYFRTILIVRKIDGRWAVSRVILL | 2.32
SEDEEYSRIIVKLWLEKMRTGDEDSLTKLMDPNYRLDINGKIFHGREEALLALREMVNRIDHFRDIKIHHVDIQGDKIRIDGRLEGEINGVHEIHKSSLVLVKYDGVWVIEEQKVL | 1.91
SEQEEITKKATEDMLRNIETGDPDMIDHLLDPDVRQEIIINGRSHENHGMEKLRKWLSTWHDEFKNVKYDLRTVEIIDGRVRIEGVLNVDGVDLHIEIRLVIVNGKLREVYHHVD | 1.36
DERHELTRRVAVLWLHIFMTGDEDLFEKLADPTTRQEVLFNGRIYSLVGREEVSRWLREMVHELRFRHIEDKDKEIQGDKVLIDGILHIEAENHSTTIRSRIVLIVVNGKIHTIKFEFH | 1.55
DEDDEVAIKFLEDIIQVWETGDEEEFSRLFDPDYRVHIGDKTLHGREIVVQEILEHLRRLGIERFEVRIHIRHAHFYNGRLDLNGELVIIINGKELRRHTHFVVLKVNGRWLLEREEVK | 1.76
REEEHHLEKLARHIVHAILTGDERYLEKLMDPNTRVEIIDGEYRIERHGMHNIVHLLLEIRIHHFEIKRITTYNGQVDIDGEIDGEYGDKRDNRHVEIRFHFVNGRTKSFKVTWR | 1.31
DEEDHDLELFLQIMTHDMRTGNEDNLTRLLDPHVRLEWNGKEFHGRDVMRFWREELGHDNVEVHMRLKDRELQGDKLIIHGEIIHRYNGREIRLDIHFIAHKVDGKWIARVRNIQ | 1.64
DEDDNDMEEMVRLFDRDLHTGNEDLLTELADPHARFDINGVELHGMHEFVTIWLEIRFILRDSRVEHIHIQGDKAHIKSRLHGEMIFNGRTTIVHSEVHIYFEKIDGRWMIHRHIVK | 0.102
DEDEKELERVMREFMRVWLTGNEKDFKELMDPHVRLEIGDKEHHGREEAVRILHEWRRKLGVDHSDYHHIHVQGEKMHVRGISEYNGRTVEVIIEVLIINGKLRSVHVEFR | 2.57
SEEEDLVQKAFEIFVHDIRTGDEDSLIENADPNVRLLINGVIFHGREEFKFIMRHWRIRRIELHDYRIQGDKAHVESRMDIEFNGRIRITHVELVILKVNGQWLIHTIKVI | 0.454
DEKDEFNHKIAHQFSESLHTGDFKLLESLFDPNVRSDINGREIIGMEELVHFWEEWKRKFPNAKERYRTESIEHQGEKTISNMRVDLHQGDFHLHREWRVEIHIIDGVVKEVRIENR | 1.23
DESEELAERLLEEMEELILTGDWEKFVRMVDPHARFVIGEFDNHGRETFVKELLELRVHIRDSRIREIDVQGEKIRMHTQIDFEIDVDGVRHRREHSFHFIVLKIDGRWSVQQLRIK | 0.64
DEIKDHVEHASRLLLETYETGDEHTLERLVDPHVKLEVNGQEHVGRETTRWMLEFFKNLKIRIEDVRWQGNKIEIHSILHFNGKDLEMIYFAEKVDGRWVIRSVRTT | 1.38
DEEEKEIKEMLHEYLRAVETGDEHTLHRLMDPHVRIDVNGRQVVGREEWLKILRELGIKVSELIFRDIKFQGDKVNIDAEERLHYNGRTVTTRVTITAWKYDGRWTVQSKKVD | 2.04
TEEEEMYHKFAHEIARNLVTGDEDRLLELADPHVKSNVNGVELHGMEHFLEFWIHIVKEIRVHLRITHVTVINGVVIHDSEYEFIVNGKRHTTRVEIWWVVVDGRVHRVELRFK | 1.17
SEEERDIRHSIEMLFYYFETGDWREWERLADPRARLIIGEKEHHGREELSRSLKELLDRLGVDHYEIKDKRSEIIDGRVNLHVRGHLHVNGRNQHVIVIMVAIKIDGRWLLESLEIRLH | 1.3
SEWEKQLRHMVHLVLLAVRTGNEHLLNELLDPDTRAVFNGVESVGREDMWRMLKHLRIERVRVHDERHDDQGNKARFILLGETQVNVNGKVLETHTEIEIILIKVDGQWTFETLTFRIT | 1.55
SEYEEFLKEALRILIDDILTGDWRLVYKLFDPETRLNVNGQEIHGRDDVVHHLTHIAREWRMDVKVKEYNVFDGQIHMFGHLQLEFDGREYRRRVELIIIKFNGQWHLRQVVKH | 1.58
DEEKEEFKIASKLFIDSLRTGNEELLSFLFDPHAKSDVNGKNIHGMEILAETMSRLFERYKGMQIRVDEIRFFDGQIHLHGRVNFNGREHTVIVIINKVNGQWRIQDLQID | 1.11
SEHEEHLKHISELMVKLFLTGDEELINHLADPDTRLNINGVHFIGREHAVKASKDFWDELGVNHIEIEDRKVINGRVTMTGHVHVGDKYRRTQNYLVVVNGRLKNVEWRID | 0.806
DERDESLKNIFELLERILETGDEDDSSKLADPHTRMHWNGKELHGRELYADLFDRLLRELGVDHVRLKIHEVRIQGDKIRMDGTLHLIQGDKEERRRVHLVAHKINGRWHIKQVSIN | 1.26
SEEEELDRRITDLIVHARKTGDEEMWQRYADPHVRLFWFQGDYLLMIVGREDASKWMRHLLEELGIKHIEFKHIDIFDGRSHIDSRVKVNGKERETRHQFVVVNGRITEVREKID | 0.415
DEREERSRHQMEWLWHLMITGDERLLEELADPHAKIEVGDKDFHGRHTLIEIIREHLQRVKNVRLEFREIEIQGDKIIIRGKLHIGDKEKDIIVIIVVVNGRLKSFKLEVH | 1.19
SERHEKTKKVLDDFLEIRETGDEHTFNRLADPHTRVHIGDKYVHGMEDANKMLKQWEQEMGIDHIIIRHVEIRLFNGKVNHHLDEELIVNGQSLRVEVVLFIFKFDGRWVLEKLHINVH | 1.21
SEDDEIKKHVAERWLKRLETGDEKTLSKLLDPDVRLHINGRTLHGREEVVHELHKWYYELGVDHVILRHIDHVNGQLRLHNEIRFENRHTSEILVITKVDGQWIVKYIEIRDH | 1.53

Sequence | protease stability score
DEDEKRSEEFLNEFFHWVHTGDEEKLVKLMDPHMRLDVNGKESVGRENAFEMWHHLRIRRMDVRDIRVELVGDKAIARSDGHIDGEIDGVRIHTRVDLLLISRKVDGVWLFKSVSINSI | 2.23
REDEQLFHEMLRRVIHALLTGDEQILADLLDPRMRIMYDGVSRHGWHDFIEVLRDLGFDHLILKDYRIQGDYVRFHFIIEQGDKHHTVEIHVQIWDGKVEQIVVNYR | 2.04
DREELLMLFLKSWLTGDEHILKELLDPHVRMDVDGVEQHGRDVLLHLLHHLSRYMGVDHHRIERFEVQGDKIFINLRIHWNGVESELEIILFVIDGKIKEVEIRSRDEDHKRMVKESWR | 1.19
SEEVEEAVTKMRHIWEHFLTGDEDTLKELVDPTVRLEQGDKEYHGRDFYIKYSEHIRRRFKNLKIIERDMKFTVYNGKAQMQFDGELRVGDKSTEVVIFLHMRKIDGRWFIEAERIEIR | 1.38
DDHDKLLQKLMRFWLWAFLTGDEDHFDEMADPNTRLSSIVNGRDIQLHGREQVNKHFKELRLHHFILRTWSVYDGRVEIDGQMDGEYDGRRIDTRVTIIIVIINGRSTREHLDFK | 0.261
SETDESSRVASELMREWLETGDEEVISELADPHVRFDWNGRRDIGRHSYLEFMHMLRRHMGIKHIEFKRIEVHVINGVVHVNITGILHFNGVQLTTHIHIHAEKIDGRWILKQSHYDTE | 0.751
DEDEEQARRLAELIRHLLITGDEYVNRKMADPRVQFILHQGDKNYLHHGRDEVVRRLRELWEEWGFDQIHVNLDDVKIVNGRVIIHTRLQVGDKHMELRFIIEKIDGKWLVTHEQIHLH | 1.62
SEEEELSHTMWRLWVHAVRTGDFRMLEHLADPHVRDVRNINGVTTRLVGREEWRRIVEEEIDKYPNMRVEFEDVRDVGNYVHAHTKSHYDGKTVDTRVELLVVDGRISDFKLHIE | 1.08
EEDHSEVERRLEIILHKWETGDERILHHYLDPHAKFIINGREYHGRENALEHWVKSEEDLGVKHERLREYDFRYQGDKVELHTEIELHVGNKVFDIHIIIIARKVNGRWVIEEVRLEFR | 1.23
DELQRDSEEAFELVLRVLRTGDEETMSRLADPHTRINVHQGDKIVEFHGREDFERFMHDLLRKFPNMRIDAERVHTFNGQVVINHRLHVNGQERDLHIFSLKIDGRWHLKHVELKLK | 1.73
DEDERHMRQTLEDYDHAVETGDWKRLRELADPDYKTDIDGVEIHGMELFWEHLRREVEKYKNVKVEFRLKRIRSIGDFMEIDGRLTLKYGDKEIRVRVIIHAIKVDGRWLFHRMIFG | 1.69
DRREEMEEIADELRRELIKTGDEHSTHRLADPHAKLHIGDKEYHGMEFMIRFFKILGVDHLRLQDIRVIDGQVHIHITSRVGDKRVHVEIISDKYNGRWRLREVIITID | 0.711
DEEKEYAIRILREFTKYWETGDFERMKELFDPNARLEIGDKRAVGRDKVLEVLLRELHELRFKHFELREEDVIGEKKHSELIVHMEIDGVWHRRNIRVEIVVIDGKIHRMRFEQH | 2.37
SEDHRHAMEFIHHMVRAIHTGDEQILTEYLDPHVRIENENETLHGWEHRTEWMKRFDHIDRHIIVRHVEIQGNKVKVDAELRFRLHQGDFVEENEIRLRIIILKVDGRWVLHKVRFI | 1.35
SDSEESSKVALELFKESVETGDERVSQELADPNYRVHYGDKTLHGREAWIRVILEMRWRTVTFKHLDFQGDKVRIEGEILGEYNGVETNFSTTLNVLKINGQWFLHSVHIQ | 1.49
DEIRKMVEESFEIILHSILTGDEHIEEFLADPHVRILINGVTFHGREEFHKLIEHYLKHWRIKDSKVDHVHAQGEKIEMRVTIHGTVDGQEQTREVIIIAKKVDGRWSMKHVEVR | 2.08
DEDTEEMRRFLKAFIRALETGNFEETLRLLDPNVRIRIGDKQLIGREEWHKWRERVDHYEVDDIEIEDMRVIGNKVHVFGRVDIKLIIGDKEHQDRKEVHIIMLKVNGRWLIHEIEVH | 1.91
HDDEEIIKREIDFFLEVLLTGDWRHLNELLDPHARLEIGDKRFHGREAVIKEIRTFIERFGVDHSEIDTVNIQGEKAEYKFTLKVGDKRHELHITMTKINGRWYITEVKFS | 1.79
DEDREMLEELTRRLAHSVETGDEDHHSHLADPNTRETIHINGRTFEHHGWEIWSELLTRLGADHMHLDRVHVVNGRVEIRSRVHVGDKEYKVHILMVVINGRLKEVSVHIH | 0.721
SEDEEELNRVLKELLHAMVTGNEELWSRLVDPNYRVTVGDFRLHGMEEYSRILHEWRVEIREFRITSRTTVDGRIFIDAHFTEEIKQGDKVTFVNTRIRLIMIKVDGRWHVESREIR | 0.484
SEEDKHHETLARLIIEALTTGDEESLMHLMDPNARIQIGDKDNHGWRSLHIHHRELGIDHKEIRVREVRFVNGKIHIDSQVHFHFNGVTFDVRTHIILVVINGKLTKMWVIIG | 0.363
DESTEVLERIMKDFLDELRTGDWEKFMELADPNVRLHFNGVTNHGREEVTRYFREHLARFDHYEIENHRVTLVGDKLHLDVILRVHQGDKFREYKVEIRVVVYDGKIKEVHIIIR | 2.44
DESTSQARKAIEQLIHVEETGDEEMFSTLVDPHVRMDYNGVELHGMEKARNHWNELWKRFKGIKIELKRLEIQGNKVRVQMTYIVGDKNKYVEIHITKIDGQWVITEIHVD | 1.12
DERKEDLDRALEEFLRSVETGDEELNERLADPNVKLVIDGVKYHGMEFIVKQLDEWRIHDMRIRRIRNVGEKVYVDLSVDGNFNGRRYRTEVKIVFTKINGRWLLETHIVD | 1.87
DELEKYVLDMVMLWIRSHSTGDEDALRRLADPHTRVIINGKELHGMDDVRRHIEEIRIHEEHVHVERVEIQGNKAIVDTSRHIWIDFNGQNIRVDVKTRFHLEKIDGVWYLKEVRIG | 1.4
